Targets include human importin α5 ΔIBB (human); human importin α1 ΔIBB (human); human importin α7 ΔIBB (human); mouse importin α2 ΔIBB (mouse, UniProt P52293 70-529).
Assay in all cases: FP

This is an account of results in article doi:10.1101/2025.05.20.655083 (2025).

A word on the Kd: it is the constant that tells how readily two partners part at equilibrium. Read a high Kd as weaker binding.

Where no end group is shown, it is not given here. The star is where a group is joined. FITC = O=C1OC2(c3ccc(O)cc3Oc3cc(O)ccc32)c2ccc(NC(=S)*)cc21; Ahx = NCCCCCC(=O)O

human importin α5 ΔIBB (human), sequence (chain, as listed by the source mutant): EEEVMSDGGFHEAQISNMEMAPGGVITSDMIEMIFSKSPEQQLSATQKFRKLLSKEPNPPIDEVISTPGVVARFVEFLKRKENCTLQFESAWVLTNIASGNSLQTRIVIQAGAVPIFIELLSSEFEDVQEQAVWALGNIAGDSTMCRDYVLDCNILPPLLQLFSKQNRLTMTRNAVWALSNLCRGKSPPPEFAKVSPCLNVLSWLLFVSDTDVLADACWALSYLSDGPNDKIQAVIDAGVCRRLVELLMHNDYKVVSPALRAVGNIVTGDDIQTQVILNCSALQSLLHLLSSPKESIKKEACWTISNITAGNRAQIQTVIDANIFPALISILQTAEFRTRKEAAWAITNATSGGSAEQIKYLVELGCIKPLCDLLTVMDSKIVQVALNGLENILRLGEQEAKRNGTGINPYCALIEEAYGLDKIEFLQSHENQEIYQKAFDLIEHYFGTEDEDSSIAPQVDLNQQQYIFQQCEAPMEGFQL
human importin α7 ΔIBB (human), sequence (chain, as listed by the source mutant): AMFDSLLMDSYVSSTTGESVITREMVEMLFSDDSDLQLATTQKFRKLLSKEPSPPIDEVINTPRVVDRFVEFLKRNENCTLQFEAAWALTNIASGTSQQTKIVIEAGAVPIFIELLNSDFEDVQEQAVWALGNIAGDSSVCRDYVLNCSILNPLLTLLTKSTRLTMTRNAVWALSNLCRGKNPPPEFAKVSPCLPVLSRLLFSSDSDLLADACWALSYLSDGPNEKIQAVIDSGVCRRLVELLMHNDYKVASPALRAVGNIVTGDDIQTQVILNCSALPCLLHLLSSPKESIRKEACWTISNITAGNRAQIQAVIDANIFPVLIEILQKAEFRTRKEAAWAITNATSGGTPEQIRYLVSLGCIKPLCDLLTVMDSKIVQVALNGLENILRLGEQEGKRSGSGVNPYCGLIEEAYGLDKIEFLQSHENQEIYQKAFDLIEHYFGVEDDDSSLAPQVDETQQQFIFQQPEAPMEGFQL

B1: BSB PyV-LTA;NLS peptide (Black Sea Bass polyomavirus large tumor antigen residues 660-683) (peptide)
peptide: {FITC-Ahx}-IAEYKRRHNIGSDGLPNKRRRCLF
With B1, the Kd with human importin α5 ΔIBB worked out at 12 nM; with human importin α1 ΔIBB it was 31 nM; with human importin α7 ΔIBB it was 2 nM; in the assay with mouse importin α2 ΔIBB, 4 nM.
